Results taken from patent US12215162B2, “BAFF-R targeted chimeric antigen receptor-modified T-cells and uses thereof” (CITY OF HOPE, priority 2016, dated 2025).

Experiments:
[1] = system: JeKo-1, SU-DHL-6, Raji, and RL; experiment: Flow cytometry binding to non-Hodgkin lymphoma lines; set-up: species or system human; conditions: Alexa Fluor 488 conjugated chimeric antibody
Excerpt: FIGS. 1A, 1B, 1C, 1D and 1E are FACS images showing generation and specificity of novel monoclonal antibodies against human BAFF-R. FIG. 1A is a FACS analysis of cell surface expression of hBAFF-R-GFP fusion protein in mouse fibroblast L cells. Gated on GFP-positive cells, engineered L cell clone (right plot) is compared to parental L cells (left plot). Clone D2C was selected for further studies. FIGS. 1B, 1C, 1D and 1E are FACS traces of fluorescent counts of anti-BAFF-R antibodies binding cell lines and patient samples. […] BAFF-R-negative 293T embryonic kidney cell line was used as a control. […] Parental L cells and secondary anti-hIgG-APC antibodies only were used as controls. […] The data are representative of three independent experiments. For all of FIGS. 1B-1E, the traces from top to bottom as shown in the figures correlate with the variables (e.g., antibody type or cell type) used from top to bottom shown below or next to the figures.
FIG. 10 are results of FACS analyses showing hBAFF-R mAbs recognized non-Hodgkin lymphoma cell lines in vitro. […] The traces from top to bottom as shown in the figures correlate with the variables (e.g., antibody type or cell type) used from top to bottom shown next to the figures.

[2] = system: BAFF-R-expressing L cells and JeKo-1; experiment: ADCC chromium-51 release assay with NK cells; assay type: cell-based; conditions: NK cells E:T 20:1; controls parental L cells and U266
Experimental: Antibody-induced cytotoxicities measured by chromium-51 release after incubation with C55, C90, or rituximab and effectors (NK cells or complement containing serum). NK effector cell to target ratio (E:T) of 20:1. […] Data are shown as the mean±s.d. of triplicate samples. *P<0.05 compared with NK cells by two-tailed Student's t-test.
FIG. 12 is a graph showing chimeric antibodies induced ADCC against BAFF-R expressing L cells. BAFF-R-expressing D2C L cells (targets) were labeled with chromium-51 followed by incubation overnight with chimeric mAb+NK cells (effector to target ratio, 20:1). Culture supernatant was analyzed for released chromium.
(§1) Cytotoxicity assays. Target cells (L cells, human tumor lines, primary patient samples) were labeled with chromium-51 (51Cr, Perkin Elmer, Waltham, MA) for a 51Cr release assay. Briefly, antibodies and effectors (NK cells or complement serum standard [Sigma Aldrich, St. Louis, MO]), were added to labeled target cells and incubated up to 18 hours. NK cells were enriched from PBMC (NK cell enrichment kit, Stemcell Technologies, Vancouver, Canada). 51Cr released into supernatant was detected with a Wizard Automatic Gamma Counter (Perkin Elmer).

[3] = system: primary CLL and MCL samples; experiment: ADCC against primary samples from rituximab-treated patients; assay type: cell-based, human; conditions: CLL (n=3) and MCL (n=2), E:T 20:1
Experimental: FIGS. 3A and 3B are graphs showing BAFF-R monoclonal antibodies induce in vitro Antibody Dependent Cell-Mediated Cytotoxicity (ADCC) against primary B-cell tumors. Antibody-dependent cell-mediated cytotoxicity (ADCC) effects were measured by chromium-51 release after incubation with C55, C90, or rituximab and effectors (NK cells). […] Data are shown as the mean±s.d. of triplicate samples. *P<0.05 compared with NK cells by two-tailed Student's t-test.
as §1

Mino cells = experiment: Internalization of antibody on Mino cells; assay type: cell-based, human; conditions: 37° C. for 1 hour
Experimental: Mino cells were incubated with mAb C90 (0.05 μg/10^6 cells) at 4° C. for 20 minutes followed by incubation at 37° C. for 1 hour. Flow cytometry analysis was performed with anti-mouse IgG-APC. Cells were gated for surface localized antibodies (OUT) and loss of cell surface staining (IN).

JeKo-1 (MCL) = experiment: In vivo JeKo-1 MCL tumor model, antibody treatment; set-up: species or system NSG mice; conditions: 200 μg antibody + NK-92-176V cells + IL-2 IV, vs PBS or NK cells alone
Excerpt: (§2) FIG. 4A is a schematic showing treatment schedule following Day 0 tumor challenge with minimum lethal dose of tumors. Treatments were given by IV tail vein injections. FIGS. 4B and 4C are images showing chimeric antibodies targeting human BAFF-R elicited in vivo therapeutic effects against B-cell tumors. Bioluminescence images of mice challenged with luciferase-expressing tumors: JeKo-1 (MCL) (FIG. 4B) or RS4; 11 (ALL) (FIG. 4C). Experimental groups received treatment of chimeric BAFF-R mAbs (C55 or C90, as indicated). Control group mice received PBS, NK cells alone, or rituximab on the same schedule. Data are representative of three independent experiments.
(§3) In vivo studies. For tumor models, stable, luciferase-expressing tumors lines were established for bioluminescent imaging in mouse models. Briefly, a luciferase gene was introduced into tumor lines by a lentivirus gene delivery system (pLenti7.3/V5-DEST Gateway Vector Kit, Life Technologies, Carlsbad, CA). The minimum lethal dose per mouse was determined for each tumor cell line by dose titration. Tumor cells were injected intravenously (IV) and mice were monitored by in vivo bioluminescence imaging for minimum tumor dose to ensure engraftment. Minimum lethal tumor doses were 1×10^6 JeKo-1, 5×10^5 RS4; 11, 5×10^5 JeKo-1-CD20-KO, or 2.5×10^4 Z-138 cells. […]

[4] = system: RS4; 11 (acute lymphoblastic leukemia, ALL); experiment: In vivo RS4;11 ALL tumor model, antibody treatment; set-up: species or system NSG mice; conditions: 200 μg antibody + NK-92-176V cells + IL-2 IV
Excerpt: as §2, §3

JeKo-1-CD20-KO clone 25 = experiment: ADCC against rituximab-resistant JeKo-1-CD20-KO; assay type: cell-based, human; conditions: NK cells E:T 20:1
Experimental: FIGS. 5A, 5B and 5C are images or graphs showing chimeric BAFF-R antibodies induce ADCC on drug resistant lymphoma models in vitro. FIG. 5A is a scatterplot of FACS analysis showing CD20 binding on JeKo-1 cells following CRISPR/HDR knock-out of CD20 gene. CD20 expression on selected CD20−/−clone #25 compared to WT JeKo-1. ADCC effects measured by chromium-51 release after incubation with C55, C90, or rituximab and effectors NK cells (E:T=20:1). Percentage of cell specific lysis of target cells: rituximab-resistant JeKo-1-CD20-KO (FIG. 5B) and ibrutinib-resistant Z-138 and SP49-IR (FIG. 5C). All data are representative of two or more identical experiments. Data are shown as the mean±s.d. of triplicate samples. *P<0.05 compared with NK cells by two-tailed Student's t-test.
as §1
Generation of JeKo-1-CD20-KO. […]

JeKo-1-CD20-KO = experiment: In vivo JeKo-1-CD20-KO tumor model, antibody treatment; set-up: species or system NSG mice
Excerpt: (§4) FIGS. 6A and 6B are images and FIG. 6C are graphs showing chimeric antibodies targeting human BAFF-R elicited in vivo therapeutic effects against drug resistant B-cell tumors. Bioluminescence images of mice challenged with luciferase-expressing tumors JeKo-1-CD20-KO cells (FIG. 6A) or ibrutinib-resistant Z-138 cells (FIG. 6B) followed by antibody treatments as in FIG. 4. Control group mice received PBS, NK cells alone, or rituximab on the same schedule. […] Tumor free rate and survival differences between experimental and all control groups were analyzed by log-rank test (** P<0.001). Data are representative of three independent experiments.
as §3

Z-138 = experiment: In vivo ibrutinib-resistant Z-138 tumor model, antibody treatment; set-up: species or system NSG mice; conditions: vs PBS or NK only
Excerpt: as §4, §3

B1: C55: chimeric mAb from clone 55 containing human IgG1 constant regions (antibody, V domains shown)
VH: QVTLKESGPGILKPSQTLSLTCSFSGFSLSTSGMGVGWIRQPSGKGLEWLAHIWWDDDKYYNSSLKSHLTISKDTSRNQVFLKITSVDTADTATYYCARSFGYGLDYWGQGTTLTVSS
VL: DIQMTQTTSSLSASLGDRVTISCSASQDISNYLNWYQQKPDGTVKLLIYYTSSLHSGVPSRFSGSGSGTDYSLTISSLEPEDIATYYCHQFSELPWTFGGGTKLEIK
[1]
  direct binding to NHL lines: exhibited direct binding
[2]
  antibody-dependent cell-mediated cytotoxicity (ADCC): elicited antibody-dependent cell-mediated cytotoxicity (ADCC) specifically against BAFF-R-expressing L cells and JeKo-1
[3]
  killing by ADCC: sensitive to killing by ADCC
Mino cells
  internalization upon binding BAFF-R: limited internalization
JeKo-1 (MCL)
  tumor growth (bioluminescence): significant retardation of tumor growth
[4]
  tumor growth (bioluminescence): markedly retarded tumor growth
JeKo-1-CD20-KO clone 25
  sensitivity to antibody-mediated cytotoxicity: retained sensitivity
JeKo-1-CD20-KO; 80-day
  tumor free and long-term overall survival: significant antitumor effects
JeKo-1-CD20-KO; Day 20
  tumor burden by bioluminescent imaging: no visible tumors
Z-138
  antitumor effects: significant effects
